In test [1] the target is T1, biotin labelled polyhistidine tagged CD47 protein (Novoprotein, Cat#321) (human, UniProt Q08722 19-139, biotin labelled (site not stated)).
T1 construct: Bought protein; also called biotinylated CD47; biotinylated human CD47 protein; not shown: polyhistidine tag
Briefly: IC50 (nM) as grade, Fab blocking biotinylated CD47 binding to SIRPα-CHO cells; legend ++: >10 nM and <65 nM.

The target of test [2] is T2, human CD47 expressed on cells (CD47 expressing CHO cells, Jurkat, HL60, DLD1, Raji) (human, UniProt Q08722 19-292).
T2 construct: also called CHO-CD47; IAP
Briefly: EC50 (nM) as grade, flow cytometry, Fab on HL60 cells; legend +++: <1 nM. (In flow cytometry, cells or beads pass a laser one at a time.)

The target of test [3] is T2, human CD47 expressed on cells (CD47 …). Briefly: EC50 (nM) as grade, flow cytometry, Fab on DLD1 cells; legend +: >60 nM.
For test [4], the target named is T3, His-tagged CD47 (Homo sapiens (Human), UniProt Q08722 19-139, limits assumed).
T3 construct: not shown: His tag
Nature of the test: flow cytometry blocking assay: His-tagged CD47 with Fab on SIRPα-expressing CHO cells (SIRPα is the blocked ligand), anti-His-APC, frequency.

The target of test [5] is T3, His-tagged CD47. Nature of the test: flow cytometry blocking assay: His-tagged CD47 with Fab on SIRPα-expressing CHO cells (SIRPα is the blocked ligand), anti-His-APC, MFI.
For test [6], the target named is T2, human CD47 expressed on cells (CD47 …). Nature of the test: EC50 (nM) as grade, flow cytometry, Fab on DLD1 cells; legend ++: >5 nM and <60 nM.
In test [7] the target is T3, His-tagged CD47. Nature of the test: IC50 (nM) MFI as grade, blocking His-tagged CD47 binding to SIRPα-CHO cells; legend +++: <2 nM.
For test [8], the target named is T3, His-tagged CD47. Nature of the test: IC50 (nM) Frequency as grade, blocking His-tagged CD47 binding to SIRPα-CHO cells; legend +: >2.7 nM.
The target in test [9] is T2, human CD47 expressed on cells (CD47 …). Nature of the test: flow cytometry on human red blood cells, donor 2, MFI; EC50 (nM) table beside the legend.
Test [10] deals with T4, human CD47-Fc protein (Novoprotein, Cat#CG18) (human, UniProt Q08722 19-139).
T4 construct: Bought protein; also called CD47-hFc; hCD47-hFc fusion protein; not shown: human IgG Fc of the bought fusion protein
Briefly: IC50 (nM) as grade, blocking of soluble CD47 binding to SIRPα-expressing CHO cells; legend ++: >1 nM and <10 nM.

Test [11] concerns the target T4, human CD47-Fc protein (Novoprotein, …). Nature of the test: IC50 (nM) as grade, neutralizing ELISA, CD47-hFc on SIRPα coated plate; legend ++: >15 nM and <20 nM. On the technique in general: In an ELISA, binding on a coated surface is turned into a signal by an enzyme label.
The target of test [12] is T5, CHO/mCD47-GFP (mouse, UniProt Q61735).
T5 construct: on the cell surface; also called mouse CD47 expressed on CHO cells; CHO cell expressing mouse CD47
T5 sequence (receptor, looked up): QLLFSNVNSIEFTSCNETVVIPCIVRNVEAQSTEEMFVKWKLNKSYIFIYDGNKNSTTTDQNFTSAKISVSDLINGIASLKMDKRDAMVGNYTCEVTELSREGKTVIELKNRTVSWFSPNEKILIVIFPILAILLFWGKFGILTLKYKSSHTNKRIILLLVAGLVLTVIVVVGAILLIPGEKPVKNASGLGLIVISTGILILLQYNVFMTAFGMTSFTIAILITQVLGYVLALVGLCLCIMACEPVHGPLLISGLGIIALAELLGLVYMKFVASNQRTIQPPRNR
Nature of the test: flow cytometry on CHO cells expressing mouse CD47-GFP, binding percentage.

Test [13] has as its target T2, human CD47 expressed on cells (CD47 …). Briefly: EC50 (nM) as grade, binding on CHO-CD47 cells; legend ++++: <0.05 nM.
Test [14] shares this target. Briefly: EC50 (nM) as grade, binding on Jurkat cells; legend ++++: <0.05 nM.
Test [15] concerns the target T6, CD47 protein (construct not stated; SPR antigen, CD47 coated ELISA plates) (Homo sapiens (Human), UniProt Q08722 19-139, limits assumed).
T6 construct: also called the antigen
Nature of the test: SPR (Biacore T100), affinity (nM) as grade; legend +: >10 nM and <40 nM. A general note: Surface plasmon resonance follows binding to a sensor surface in real time, without labels.

Test [16] has as its target T2, human CD47 expressed on cells (CD47 …). Briefly: flow cytometry on DLD1 cells, IgG, frequency.
For test [17] the target is unchanged. Nature of the test: EC50 (nM) as grade, binding on Jurkat cells; legend ++: >1 nM and <10 nM.
Test [18] addresses T1, biotin labelled polyhistidine tagged …. Nature of the test: flow cytometry blocking assay: antibody mixed with biotinylated human CD47 protein; blocked ligand SIRPα on cells; binding percentage.
Test [19] addresses T2, human CD47 expressed on cells (CD47 …). Briefly: flow cytometry on CD47 expressing CHO cells, MFI (FL-4).
For test [20] the target is unchanged. Nature of the test: IC50 as grade, SIRPα blocking on Raji cells; legend ++: >1 nM and <20 nM.
Test [21] has the same target. Briefly: IC50 as grade, SIRPα blocking on Raji cells; legend +: >20 nM.
Test [22] addresses T1, biotin labelled polyhistidine tagged …. Nature of the test: IC50 (nM) as grade, Fab blocking biotinylated CD47 binding to SIRPα-CHO cells; legend +: >65 nM.
For test [23], the target named is T2, human CD47 expressed on cells (CD47 …). Briefly: EC50 (nM) as grade, flow cytometry, Fab on DLD1 cells; legend +++: <5 nM.

Positions count from the first letter of the chain named. Some results are limits rather than exact numbers.

A word on the IC50: it is the point on the concentration scale where inhibition reaches its midpoint. A high value points to a need for much substance. As a reminder, the EC50 is the concentration giving half of the maximal effect. One may read the EC50 (read off the curve) as the concentration at which the effect is half-maximal. Higher therefore signals a less potent agent.

B1: ABU11 (Fab) (Fab, V domains shown)
VH: EVQLQQPGAELVRPGSSVKLSCKASGYSFTTYWMHWVKQRPGQGLEWIGNINPSSGDSHYNEKFKSKATLTVDKSSSTAYLQLNSLTSEDSAVYYCARDYYGAYWGHGTLVTVSA
VL: DIQMTQSPASLSASVGETVTITCRASENVYSYLAWYQQKQGKSPQLLVYKANTLAEGVPSRFSGSGSGTQFSLKINSLQPEDFGTYYCQHHYGTPLTFGSGTKLEIK
notes: Phage-derived Fab: murine VL and VH fused to human CL and CH1
In the case of B1, the 50% inhibitory concentration (IC50) in test [1] lay within 10 to 65 nM. Moreover, the EC50 is under 1 nM in test [2] and over 60 nM in test [3].

B2: ABU40 (Fab) (Fab, V domains shown)
VH: B1 VH with A9T, R13K, S16A, L81M
VL: B1 VL with V29I, K50N, N52K, T85S, S100A, I106L
notes: as for B1
B2: the entries for the “IC50 (read off the curve)” value in test [4] and in [5] were about 3 nM and about 2 nM, respectively. Moreover, the half-maximal inhibitory concentration (IC50) in test [1] was 10 to 65 nM; in [7], under 2 nM; in test [8] it was over 2.7 nM. In addition, the EC50 is 5 to 60 nM in test [6] and under 1 nM in test [2].

B3: ABU3 (antibody, V domains shown)
VH: EVQLQQSGAELVKPGASVKLSCTASGFTIKDTYMHWVKQRPEQGLEWIGRIDPAKDNTKYDPKFQGKATITLDTSSNIAYLQLSSLTSEDTAVYFCARGHYGSSYVVYWGQGTLVTVSA
VL: NILMTQSPKSMSMSVGERVTLSCKASENVGTYVSWYQQKPDQSPKLLIYGASNRYTGVPDRFTGSGSATDFTLTISSVQAEDLADYHCGQSYSYPLTFGAGTKLELK
notes: Murine hybridoma monoclonal antibody
As for B3, the EC50 was 1.47 nM in [9], under 0.05 nM in test [13] and under 0.05 nM in test [14]. Further, the IC50 in [10] lay in the range of 1 to 10 nM; in test [11] it was 15 to 20 nM. In addition, in test [12], the binding result is “no binding (tested: about 0.4 ug/ml)”. Also, in [15], the “Affinity by SPR” value is 10 to 40 nM.

B4: ABU20 (Fab) (Fab, V domains shown)
VH: RGKVQESGPGLVKPSQSLSLTCSVTGYSITSGYYWNWIRQFPGNKLEWMGYINYDGSNNYNPSLKNRISITRDTSKNQFFLKLNSVTTEDTATYYCARGYYYGSSYGYWYFDVWGTGTTVTVSS
VL: DAVVTQESALTTSPGETVTLTCRSSTGAVTTNNYANWVQEKPDHLFTGLIGGTNNRAPGVPARFSGSLIGDKAALTITGAQTEDEAIYFCALWYSNHLVFGGGTKLTVL
notes: as for B1
For B4, the IC50 in [1] was 10 to 65 nM. Further, the EC50 in test [2] is under 1 nM; in test [3], over 60 nM.

B5: Positive 2 (benchmark analogue antibody) (antibody, V domains shown)
VH: QVQLQQPGAELVKPGASVMMSCKASGYTFTNYNMHWVKQTPGQGLEWIGTIYPGNDDTSYNQKFKDKATLTADKSSSAAYMQLSSLTSEDSAVYYCARGGYRAMDYWGQTSVTVSS
VL: DVLMTQTPLSLPVSLGDQASISCRSSQSIVYSNGNTYLGWYLQKPGQSPKLLIYKVSNRFSGVPDRFSGSGSGTDFTLKISRVEAEDLGVYHCFQGSHVPYTFGGGTKVEIK
notes: also called Pos
On to B5, for which the “EC50 (read off the curve)” value in test [16] and in [19] was about 2 nM each time. Further, the EC50 was 1 to 10 nM in [17] and under 0.05 nM in test [13]. The 50% inhibitory concentration (IC50) in test [10] was 1 to 10 nM. The “IC50 (read off the curve)” value in test [18] was about 8 nM. Further, the binding result in [12] was “no binding (tested: about 0.4 ug/ml)”. Besides, the “Affinity by SPR” value in test [15] fell in the range of 10 to 40 nM.

B6: H-ABU 5 (antibody, V domains shown)
VH: QVQLVQSGAEVKKPGASVKVSCKASGYTFTDNYINWVRQAPGQRLEWMGWIYLGSGNTKYNEKFKGRVTITRDTSASTAYMELSSLRSEDTAVYYCARREERGFAVWGQGTLVTVSS
VL: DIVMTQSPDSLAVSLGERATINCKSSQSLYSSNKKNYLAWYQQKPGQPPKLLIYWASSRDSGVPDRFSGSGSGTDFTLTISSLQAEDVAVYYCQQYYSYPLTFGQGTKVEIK
For the molecule B6, in test [20], the IC50 lay in the range of 1 to 20 nM.

B7: H-ABU 3 (antibody, V domains shown)
VH: B6 VH with N32S, L53T, V106Y
VL: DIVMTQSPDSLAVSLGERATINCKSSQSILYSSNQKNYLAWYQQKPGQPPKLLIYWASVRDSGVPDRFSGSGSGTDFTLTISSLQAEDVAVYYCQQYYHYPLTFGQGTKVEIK
Consider B7, for which the IC50 in [21] was over 20 nM.

B8: ABU16 (Fab) (Fab, V domains shown)
VH: RVQLQQSGAELVRPGTSVKVSCKASAYAFTNYLIEWVKKRPGQGLEWIGVINPGSGGTNYNEKFKGKATLTADKSSSTAYMQLSSLTSEDSAVYFCARGDGYGSLFAYWGQGTLVTVSA
VL: RHCFNQSPAIMSASPGEKVTMTCSASSSVSYMHWYQQKSGTSPKRWIYDTSNLASGVPVRFSGSGSGTSYSLTISRMEAEDAATYYCQQWSNYPFTFGSGTKLELK
notes: as for B1
B8 returned an IC50 in test [22] of over 65 nM. Besides, the EC50 was under 1 nM in [2] and under 5 nM in test [23].

The values are drawn from patent publication US20200247886A1 (ZLIP, published 2020).
